± gives the uncertainty stated by the source.
Assay: self-splicing fitness, log relative to wild type (ln ratio); higher = more splicing; Tetrahymena group I intron in knt gene, E. coli kanamycin selection, DiMSum; sequences stand for … in CUCUCU…GGAGGGAAAAGUUAUCAGGCAUGCACCUGGUAGCUAGUCUUUAAACCAAUAGAUUGCAUCGGUUUAAAAGGCAAGACCGUCAAAUUGCGGGAAAGGGGUCAACAGCCGUUCAGUACCAAGUCUCAGGGGAAACUUUGAGAUGGCCUUGCAAAGGGUAUGGUAAUAAGCUGACGGACAUGGUCCUAACCACGCAGCCAAGUCCUAAGUCAACAGAUCUUCUGUUGAUAUGGAUGCAGUUCACAGACUAAAUGUCGGUCGGGGAAGAUGUAUUCUUCUCAUAAGAUAUAGUCGGACCUCUCCUUAAUGGGAGCUAGCGGAUGAAGUGAUGCAACACUGGAGCCGCUGGGAACUAAUUUGUAUGCGAAAGUAUAUUGAUUAGUUUUGGAGUACUCGUGGUCG
Method in brief: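 A randomised library covering all eight P1ex-region intron nucleotides was built with the intron in the knt kanamycin-resistance gene on pET-22b(+) and held in E. coli BL21(DE3). Cells were grown overnight at 37°C or 30°C on LB agar, with or without 25 μg/mL kanamycin, plus 100 μg/mL carbenicillin, 50 μM IPTG and 0.2% rhamnose, and pooled colonies were amplicon-sequenced on an Illumina HiSeq 2500. DiMSum fitness is the error-weighted combination of wild-type-normalised replicate fold changes, kanamycin versus none.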

Sequence | self-splicing fitness (ln) (30 °C) | self-splicing fitness (ln) (37 °C)
GAGAAGCAAUAUUACGGUCU | -2.29 ± 0.13 | -1.16 ± 0.17
GGCGAGCAAUAUUACGACUU | 0.166 ± 0.15 | 0.444 ± 0.14
GGAAAGCAAUAUUACGAACG | -0.51 ± 0.1 | -0.441 ± 0.12
GACUAGCAAUAUUACGGUAG | -0.551 ± 0.12 | -0.15 ± 0.14
GGGAAGCAAUAUUACGCUGG | -2.97 ± 0.23 | -1.73 ± 0.18
ACACAGCAAUAUUACGGCCC | -1.48 ± 0.13 | 0.924 ± 0.21
ACGCAGCAAUAUUACGAUUC | -2.28 ± 0.085 | -1.43 ± 0.096
GACAAGCAAUAUUACGGUAC | -2.81 ± 0.13 | -2.64 ± 0.16
CUCUAGCAAUAUUACGUUCA | -3.66 ± 0.34 | -3.02 ± 0.27
AGUAAGCAAUAUUACGCUUA | -3.07 ± 0.16 | -1.44 ± 0.15
UACCAGCAAUAUUACGAGGC | -4.87 ± 0.26 | -2.23 ± 0.15
UGCCAGCAAUAUUACGUACG | -0.444 ± 0.061 | 0.435 ± 0.084
UUCGAGCAAUAUUACGAGAA | – | -0.969 ± 0.32
CCGCAGCAAUAUUACGUCCC | – | -2.65 ± 0.49
GCUGAGCAAUAUUACGUCCU | -1.52 ± 0.15 | -1.06 ± 0.2
AUCCAGCAAUAUUACGCAAU | -1.38 ± 0.064 | -0.773 ± 0.089
GGUCAGCAAUAUUACGCUUU | 0.129 ± 0.071 | -0.0673 ± 0.092
ACAGAGCAAUAUUACGUAGU | -1.7 ± 0.14 | -2.87 ± 0.21
CUCAAGCAAUAUUACGCGCA | -2.95 ± 0.16 | -2.21 ± 0.15

Sequence | self-splicing fitness (ln) (30 °C) | self-splicing fitness (ln) (37 °C)
ACCAAGCAAUAUUACGUGCU | -1.7 ± 0.096 | -0.864 ± 0.096
GAAAAGCAAUAUUACGUGUG | -2.31 ± 0.062 | -1.06 ± 0.072
ACCCAGCAAUAUUACGCAGU | -0.609 ± 0.055 | -0.106 ± 0.066
AUGAAGCAAUAUUACGUCCC | 0.721 ± 0.15 | -0.534 ± 0.14
CGCCAGCAAUAUUACGCGAC | -3.18 ± 0.21 | -2.15 ± 0.17
GACGAGCAAUAUUACGCAAU | – | -2.74 ± 0.31
AUUGAGCAAUAUUACGUCAC | -3.9 ± 0.34 | -2.34 ± 0.39
CGCAAGCAAUAUUACGACAA | -2.37 ± 0.17 | -1.51 ± 0.16
CUCCAGCAAUAUUACGUCCA | -3.35 ± 0.39 | -3.24 ± 0.33
AGCAAGCAAUAUUACGACAA | -1.54 ± 0.15 | -0.436 ± 0.14
CCUGAGCAAUAUUACGGCAG | -2.92 ± 0.34 | -0.802 ± 0.17
CAGCAGCAAUAUUACGGUGC | -2.99 ± 0.17 | -2.1 ± 0.28
CGCGAGCAAUAUUACGGGUA | -2.5 ± 0.23 | -2.11 ± 0.24
GUGAAGCAAUAUUACGUACU | -1.14 ± 0.055 | -0.0726 ± 0.07
GUAUAGCAAUAUUACGUUUU | -1.97 ± 0.2 | -2.37 ± 0.28
GCAUAGCAAUAUUACGUGUU | -3.84 ± 0.14 | -2.36 ± 0.088
ACCUAGCAAUAUUACGACGU | -0.142 ± 0.071 | 0.371 ± 0.084
CAGAAGCAAUAUUACGGGCG | -0.315 ± 0.089 | -0.0188 ± 0.11
UAACAGCAAUAUUACGCGGA | -2.12 ± 0.11 | 0.0542 ± 0.076
